Reference: article PMC1747184 (Nucleic Acids Research, 2006)

Target: MutSα (MSH2–MSH6) (human (endogenous in HCT-116), UniProt P43246;P52701)
Assay: pull-down

MutSα (MSH2–MSH6), sequence (P43246 whole entry, chain 1 of 2): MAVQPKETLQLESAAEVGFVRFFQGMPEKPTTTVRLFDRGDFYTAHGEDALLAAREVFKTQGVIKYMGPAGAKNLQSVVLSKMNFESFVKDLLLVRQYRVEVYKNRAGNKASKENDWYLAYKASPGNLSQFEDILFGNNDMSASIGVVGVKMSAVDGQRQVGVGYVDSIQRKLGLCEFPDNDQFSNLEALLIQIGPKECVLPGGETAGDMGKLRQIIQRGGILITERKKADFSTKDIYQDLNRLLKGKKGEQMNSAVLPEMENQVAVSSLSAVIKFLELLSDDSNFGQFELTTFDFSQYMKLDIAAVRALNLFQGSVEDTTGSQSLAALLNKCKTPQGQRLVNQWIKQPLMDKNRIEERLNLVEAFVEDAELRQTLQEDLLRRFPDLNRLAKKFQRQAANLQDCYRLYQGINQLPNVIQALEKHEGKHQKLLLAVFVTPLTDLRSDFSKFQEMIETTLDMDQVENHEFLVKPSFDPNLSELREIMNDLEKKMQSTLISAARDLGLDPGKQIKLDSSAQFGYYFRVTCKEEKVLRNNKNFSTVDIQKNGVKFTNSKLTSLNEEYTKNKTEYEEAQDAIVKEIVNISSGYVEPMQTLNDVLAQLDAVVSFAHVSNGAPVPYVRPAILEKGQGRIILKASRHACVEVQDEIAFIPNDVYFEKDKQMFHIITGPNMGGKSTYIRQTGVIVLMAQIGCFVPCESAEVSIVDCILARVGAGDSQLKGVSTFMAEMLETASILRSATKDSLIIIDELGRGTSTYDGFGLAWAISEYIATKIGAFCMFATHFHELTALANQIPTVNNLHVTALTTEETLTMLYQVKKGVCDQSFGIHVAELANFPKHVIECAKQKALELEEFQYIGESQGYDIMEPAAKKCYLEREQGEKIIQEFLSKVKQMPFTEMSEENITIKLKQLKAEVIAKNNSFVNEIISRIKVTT
MutSα (MSH2–MSH6), sequence (P52701 whole entry, chain 2 of 2): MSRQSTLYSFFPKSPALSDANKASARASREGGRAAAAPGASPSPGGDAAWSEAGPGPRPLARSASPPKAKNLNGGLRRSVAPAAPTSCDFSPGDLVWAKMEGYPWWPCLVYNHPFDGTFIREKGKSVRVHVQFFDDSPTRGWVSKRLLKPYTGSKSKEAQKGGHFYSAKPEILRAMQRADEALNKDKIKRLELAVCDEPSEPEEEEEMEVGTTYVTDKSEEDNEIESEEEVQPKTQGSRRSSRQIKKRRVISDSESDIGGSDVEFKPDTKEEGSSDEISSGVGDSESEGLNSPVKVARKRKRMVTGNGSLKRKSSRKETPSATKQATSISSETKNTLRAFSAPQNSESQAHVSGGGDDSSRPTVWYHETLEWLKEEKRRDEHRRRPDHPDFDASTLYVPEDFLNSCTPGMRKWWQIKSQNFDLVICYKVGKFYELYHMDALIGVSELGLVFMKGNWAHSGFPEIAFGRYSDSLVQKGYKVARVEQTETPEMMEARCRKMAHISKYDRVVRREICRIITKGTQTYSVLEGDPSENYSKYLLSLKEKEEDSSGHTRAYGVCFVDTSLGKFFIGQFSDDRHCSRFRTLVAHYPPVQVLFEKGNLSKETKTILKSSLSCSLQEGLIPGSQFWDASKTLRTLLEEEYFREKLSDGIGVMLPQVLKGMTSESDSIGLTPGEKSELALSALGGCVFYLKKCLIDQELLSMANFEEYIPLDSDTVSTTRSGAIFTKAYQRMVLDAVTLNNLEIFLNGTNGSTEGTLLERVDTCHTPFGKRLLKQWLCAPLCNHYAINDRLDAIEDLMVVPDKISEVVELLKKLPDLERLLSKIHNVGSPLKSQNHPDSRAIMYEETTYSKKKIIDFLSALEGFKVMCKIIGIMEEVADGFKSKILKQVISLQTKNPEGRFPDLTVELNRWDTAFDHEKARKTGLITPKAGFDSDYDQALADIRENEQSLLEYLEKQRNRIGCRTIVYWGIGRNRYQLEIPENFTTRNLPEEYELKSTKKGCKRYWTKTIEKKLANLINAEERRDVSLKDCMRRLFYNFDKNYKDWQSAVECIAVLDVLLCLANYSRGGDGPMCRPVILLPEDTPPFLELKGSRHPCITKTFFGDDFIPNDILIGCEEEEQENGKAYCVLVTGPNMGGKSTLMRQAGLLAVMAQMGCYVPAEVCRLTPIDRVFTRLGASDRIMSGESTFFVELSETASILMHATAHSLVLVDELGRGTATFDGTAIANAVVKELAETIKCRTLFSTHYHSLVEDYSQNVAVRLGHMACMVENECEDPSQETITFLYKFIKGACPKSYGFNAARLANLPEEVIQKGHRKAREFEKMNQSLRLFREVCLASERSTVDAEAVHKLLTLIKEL

B1: MutLα^(MLH1 A128P) (complex)
chain 1: MSFVAGVIRRLDETVVNRIAAGEVIQRPANAIKEMIENCLDAKSTSIQVIVKEGGLKLIQIQDNGTGIRKEDLDIVCERFTTSKLQSFEDLASISTYGFRGEALASISHVAHVTITTKTADGKCAYRPSYSDGKLKAPPKPCAGNQGTQITVEDLFYNIATRRKALKNPSEEYGKILEVVGRYSVHNAGISFSVKKQGETVADVRTLPNASTVDNIRSIFGNAVSRELIEIGCEDKTLAFKMNGYISNANYSVKKCIFLLFINHRLVESTSLRKAIETVYAAYLPKNTHPFLYLSLEISPQNVDVNVHPTKHEVHFLHEESILERVQQHIESKLLGSNSSRMYFTQTLLPGLAGPSGEMVKSTTSLTSSSTSGSSDKVYAHQMVRTDSREQKLDAFLQPLSKPLSSQPQAIVTEDKTDISSGRARQQDEEMLELPAPAEVAAKNQSLEGDTTKGTSEMSEKRGPTSSNPRKRHREDSDVEMVEDDSRKEMTAACTPRRRIINLTSVLSLQEEINEQGHEVLREMLHNHSFVGCVNPQWALAQHQTKLYLLNTTKLSEELFYQILIYDFANFGVLRLSEPAPLFDLAMLALDSPESGWTEEDGPKEGLAEYIVEFLKKKAEMLADYFSLEIDEEGNLIGLPLLIDNYVPPLEGLPIFILRLATEVNWDEEKECFESLSKECAMFYSIRKQYISEESTLSGQQSEVPGSIPNSWKWTVEHIVYKALRSHILPPKHFTEDGNILQLANLPDLYKVFERC
chain 2: MERAESSSTEPAKAIKPIDRKSVHQICSGQVVLSLSTAVKELVENSLDAGATNIDLKLKDYGVDLIEVSDNGCGVEEENFEGLTLKHHTSKIQEFADLTQVETFGFRGEALSSLCALSDVTISTCHASAKVGTRLMFDHNGKIIQKTPYPRPRGTTVSVQQLFSTLPVRHKEFQRNIKKEYAKMVQVLHAYCIISAGIRVSCTNQLGQGKRQPVVCTGGSPSIKENIGSVFGQKQLQSLIPFVQLPPSDSVCEEYGLSCSDALHNLFYISGFISQCTHGVGRSSTDRQFFFINRRPCDPAKVCRLVNEVYHMYNRHQYPFVVLNISVDSECVDINVTPDKRQILLQEEKLLLAVLKTSLIGMFDSDVNKLNVSQQPLLDVEGNLIKMHAADLEKPMVEKQDQSPSLRTGEEKKDVSISRLREAFSLRHTTENKPHSPKTPEPRRSPLGQKRGMLSSSTSGAISDKGVLRPQKEAVSSSHGPSDPTDRAEVEKDSGHGSTSVDSEGFSIPDTGSHCSSEYAASSPGDRGSQEHVDSQEKAPKTDDSFSDVDCHSNQEDTGCKFRVLPQPTNLATPNTKRFKKEEILSSSDICQKLVNTQDMSASQVDVAVKINKKVVPLDFSMSSLAKRIKQLHHEAQQSEGEQNYRKFRAKICPGENQAAEDELRKEISKTMFAEMEIIGQFNLGFIITKLNEDIFIVDQHATDEKYNFEMLQQHTVLQGQRLIAPQTLNLTAVNEAVLIENLEIFRKNGFDFVIDENAPVTERAKLISLPTSKNWTFGPQDVDELIFMLSDSPGVMCRPSRVKQMFASRACRKSVMIGTALNTSEMKKLITHMGEMDHPWNCPHGRPTMRHIANLGVISQN
- fold decrease of binding against wild-type MutLα: ~5 fold
